# Reference: US20240192215A1 (E AND S HEALTHCARE, published 2024)
# B1: monoclonal antibody B264 (antibody, mouse IgG1, kappa, V domains shown)
# VH: QVQLQQSGAELARPGASVKMSCKASGYTFTSYTMHWVKQRPGQGLEWIGYINPTSDYTNYNQKFKDKATLTADKSSSTAYMQLSSLTSEDSAVYFCASEGGFLYYFDYWGQGTTLTVSS
# VL: DVLMTQTPLSLPVSLGDQASISCRSSQSIVHSNGNTYLEWYLQKPGQSPKLLIYKVSNRFSGVPDRFSGSGSGTDFTLKISRVEAEDLGVYYCFQGSHVPYTFGGGTKLEIKR
# notes: also called AB264; B264 (Trx1-mIgG1)
# B2: monoclonal antibody B266-1 (antibody, human IgG1)
# light: QIVLTQSPAIMSASPGEKVTMTCSASSRISYMYWYQQKPGTSPKRWIYDTSKLASGVPARFSGSGSGTSYSLTISTMEAEDAATYYCHQRSSYPTFGAGTKLELKSVAAPSVFIFPPSDEQLKSGTASVVCLLNNFYPREAKVQWKVDNALQSGNSQESVTEQDSKDSTYSLSSTLTLSKADYEKHKVYACEVTHQGLSSPVTKSFNRGEC
# heavy: not shown
# notes: B266 with the Fc part changed to human IgG1; also called B266-1 (Trx1-hIgG1); B266-1 (hTrx1-hIgG1)
# Assays:
# Peptide_012 = target: T1, Peptide_012 (human); assay: peptide microarray, 0.04 ug/mL
# T1 construct: 15-mer on microarray; not native form, includes recombinant insert region
# T1 peptide: HHHHHHHVKQIESKT
# Peptide_013 = target: T2, Peptide_013 (human); assay: peptide microarray, 0.04 ug/mL
# T2 construct: 15-mer on microarray; not native form, includes recombinant insert region
# T2 peptide: HHHHHHVKQIESKTA
# Peptide_023 = target: T3, Peptide_023 (human); assay: peptide microarray, 0.04 ug/mL
# T3 construct: 15-mer of hTrx1 on microarray
# T3 peptide: ESKTAFQEALDAAGD
# Peptide_092 = target: T4, Peptide_092 (human); assay: peptide microarray, 0.04 ug/mL
# T4 construct: 15-mer of hTrx1 on microarray
# T4 peptide: PTFQFFKKGQKVGEF
# Peptide_094 = target: T5, Peptide_094 (human); assay: peptide microarray, 0.04 ug/mL
# T5 construct: 15-mer of hTrx1 on microarray
# T5 peptide: FQFFKKGQKVGEFSG
# Peptide_095 = target: T6, Peptide_095 (human); assay: peptide microarray, 0.04 ug/mL
# T6 construct: 15-mer of hTrx1 on microarray
# T6 peptide: QFFKKGQKVGEFSGA
# Peptide_007 = target: T7, Peptide_007; assay: peptide microarray, anti-mouse IgG DyLight 650, MMC2 heatmap (Example 17)
# T7 peptide: VHSQHHHHHHHHVKQ
# Experimental: (§1) 5, 1, 0.2, 0.04, 0.008 and 0.0016 μg/mL serial dilutions were incubated on a single multi-well microarray slide at 30° C. for 1 hour. The slide includes 21 individual mini-arrays (one mini-array per sample dilution).
# (§2) DyLight 650 was used as a label. False-positive binding to a peptide was evaluated by performing one additional control incubation in which only a secondary antibody was applied on the same microarray slide. Before performing each step, the microarrays were washed with a washing buffer.
# (§3) To visualize the obtained results and compare binding regions across individual cultures, as shown in FIGS. 21A to 21D, heatmap diagrams were calculated. In FIGS. 21A to 21D, the fluorescence intensity is expressed in a color-coded manner, white indicates no binding, and red indicates strong binding. For all evaluations, the MMC2-value of the average pixel fluorescence for each peptide was calculated.
# Peptide_009 = target: T8, Peptide_009; assay: as above
# T8 peptide: SQHHHHHHHHVKQIE
# Experimental: as §1, §2, §3
# Peptide_034 = target: T9, Peptide_034; assay: as above
# T9 peptide: AAGDKLVVVDFSATW
# Experimental: as §1, §2, §3
# Peptide_038 = target: T10, Peptide_038; assay: as above
# T10 peptide: KLVVVDFSATWCGPC
# Experimental: as §1, §2, §3
# Peptide_040 = target: T11, Peptide_040; assay: as above
# T11 peptide: VVVDFSATWCGPCKM
# Experimental: as §1, §2, §3
# Peptide_042 = target: T12, Peptide_042; assay: as above
# T12 peptide: VDFSATWCGPCKMIK
# Experimental: as §1, §2, §3
# Peptide_060 = target: T13, Peptide_060; assay: as above
# T13 peptide: HSLSEKYSNVIFLEV
# Experimental: as §1, §2, §3
# Peptide_067 = target: T14, Peptide_067; assay: as above
# T14 peptide: SNVIFLEVDVDDCQD
# Experimental: as §1, §2, §3
# Peptide_068 = target: T15, Peptide_068; assay: as above
# T15 peptide: NVIFLEVDVDDCQDV
# Experimental: as §1, §2, §3
# Peptide_070 = target: T16, Peptide_070; assay: as above
# T16 peptide: IFLEVDVDDCQDVAS
# Experimental: as §1, §2, §3
# Peptide_072 = target: T17, Peptide_072; assay: as above
# T17 peptide: LEVDVDDCQDVASEC
# Experimental: as §1, §2, §3
# Peptide_074 = target: T18, Peptide_074; assay: as above
# T18 peptide: VDVDDCQDVASECEV
# Experimental: as §1, §2, §3
# Peptide_075 = target: T19, Peptide_075; assay: as above
# T19 peptide: DVDDCQDVASECEVK
# Experimental: as §1, §2, §3
# Peptide_077 = target: T20, Peptide_077; assay: as above
# T20 peptide: DDCQDVASECEVKCM
# Experimental: as §1, §2, §3
# Peptide_078 = target: T21, Peptide_078; assay: as above
# T21 peptide: DCQDVASECEVKCMP
# Experimental: as §1, §2, §3
# Peptide_001 = target: T22, Peptide_001; assay: as above
# T22 peptide: VATAADVHSQHHHHH
# Experimental: as §1, §2, §3
# Peptide_099 = target: T23, Peptide_099; assay: as above
# T23 peptide: KGQKVGEFSGANKEK
# Experimental: as §1, §2, §3
# Peptide_101 = target: T24, Peptide_101; assay: as above
# T24 peptide: QKVGEFSGANKEKLE
# Experimental: as §1, §2, §3
# Peptide_002 = target: T25, Peptide_002; assay: as above
# T25 peptide: ATAADVHSQHHHHHH
# Experimental: as §1, §2, §3
# Peptide_103 = target: T26, Peptide_103; assay: as above
# T26 peptide: VGEFSGANKEKLEAT
# Experimental: as §1, §2, §3
# Peptide_107 = target: T27, Peptide_107; assay: as above
# T27 peptide: SGANKEKLEATINEL
# Experimental: as §1, §2, §3
# Peptide_003 = target: T28, Peptide_003; assay: as above
# T28 peptide: TAADVHSQHHHHHHH
# Experimental: as §1, §2, §3
# Peptide_005 = target: T29, Peptide_005 (human); assay: peptide microarray, 0.04 ug/mL
# T29 construct: 15-mer on microarray; not native form, recombinant insert region
# T29 peptide: ADVHSQHHHHHHHHV
binder,measurement,setting,value
B1,signal (blank-control = 1),Peptide_012,1.15
same,signal (blank-control = 1),Peptide_013,1.4
same,signal (blank-control = 1),Peptide_023,1.15
same,signal (blank-control = 1),Peptide_092,5.18
same,signal (blank-control = 1),Peptide_094,1.49
same,signal (blank-control = 1),Peptide_095,1.66
same,binding result,Peptide_007,no binding (tested: 5 ug/mL)
same,binding result,Peptide_009,no binding (tested: 5 ug/mL)
same,binding result,Peptide_034,no binding (tested: 5 ug/mL)
same,binding result,Peptide_038,binds
same,binding result,Peptide_040,no binding (tested: 5 ug/mL)
same,binding result,Peptide_042,no binding (tested: 5 ug/mL)
same,binding result,Peptide_060,binds
same,binding result,Peptide_067,no binding (tested: 5 ug/mL)
same,binding result,Peptide_068,no binding (tested: 5 ug/mL)
same,binding result,Peptide_070,no binding (tested: 5 ug/mL)
same,binding result,Peptide_072,no binding (tested: 5 ug/mL)
same,binding result,Peptide_074,no binding (tested: 5 ug/mL)
same,binding result,Peptide_075,no binding (tested: 5 ug/mL)
same,binding result,Peptide_077,no binding (tested: 5 ug/mL)
same,binding result,Peptide_078,no binding (tested: 5 ug/mL)
same,binding result,Peptide_001,no binding (tested: 5 ug/mL)
same,binding result,Peptide_099,no binding (tested: 5 ug/mL)
same,binding result,Peptide_101,no binding (tested: 5 ug/mL)
same,binding result,Peptide_002,no binding (tested: 5 ug/mL)
same,binding result,Peptide_103,no binding (tested: 5 ug/mL)
same,binding result,Peptide_107,no binding (tested: 5 ug/mL)
same,binding result,Peptide_003,no binding (tested: 5 ug/mL)
B2,signal (blank-control = 1),Peptide_005,1.6
